Experimental data published in US8257758B2, “Process for the extraction, purification and enzymatic modification of soy 7S globulin alpha' subunit for use as hypocholesterolemizing agent” (Indena S.p.A., priority 2002, dated 2012).

B1: α' subunit: soy β-conglycinin α′ subunit purified by Metal Affinity Chromatography under denaturant conditions (protein, UniProt P11827 63-621, looked up)
Beta-conglycinin alpha' …: VEEEEECEEGQIPRPRPQHPERERQQHGEKEEDEGEQPRPFPFPRPRQPHQEEEHEQKEEHEWHRKEEKHGGKGSEEEQDEREHPRPHQPHQKEEEKHEWQHKQEKHQGKESEEEEEDQDEDEEQDKESQESEGSESQREPRRHKNKNPFHFNSKRFQTLFKNQYGHVRVLQRFNKRSQQLQNLRDYRILEFNSKPNTLLLPHHADADYLIVILNGTAILTLVNNDDRDSYNLQSGDALRVPAGTTYYVVNPDNDENLRMITLAIPVNKPGRFESFFLSSTQAQQSYLQGFSKNILEASYDTKFEEINKVLFGREEGQQQGEERLQESVIVEISKKQIRELSKHAKSSSRKTISSEDKPFNLRSRDPIYSNKLGKLFEITPEKNPQLRDLDVFLSVVDMNEGALFLPHFNSKAIVVLVINEGEANIELVGIKEQQQRQQQEEQPLEVRKYRAELSEQDIFVIPAGYPVVVNATSDLNFFAFGINAENNQRNFLAGSKDNVISQIPSQVQELAFPGSAKDIENLIKSQSESYFVDAQPQQKEEGNKGRKGPLSSILRAFY

Columns and labels:
[1] = tested on: rats fed with hypercholesterolemic diet; assay: Total cholesterol and triglycerids plasma levels in rats fed with hypercholesterolemic diet, 28 day oral treatment; assay type: in vivo, rat; settings: for Total cholesterol / Total triglycerids: plasma, male CD rats, hypercholesterolemic diet, oral 28 days, after 16 hour fasting
Procedure: Male rats CD SPF/VAF, weighing 75-100 g, were used. The animals were housed in makrolon cages (4-5 animals per cage) in environment with automatic control of light (12 hour light/12 hour darkness cycles), temperature (21±1° C.) and humidity (60±5%).
After 7 day housing, the animals were randomly divided into seven groups of 20 rats each (Table 2). During 28 days, one group was fed with normal diet (cod. 014RF25C; Mucedola S.r.l., Settimo Milanese, MI, Italy), whereas the others were fed with hypercholesterolemic diet consisting of 1% cholesterol, 0.5% cholic acid and 25% hydrogenated coconut oil (batch 332000, preparation Jan. 9, 2000; Laboratorio Dottori Piccioni, Gessate, MI, Italy), with access to water ad libitum. The diet was given daily (40 g, 09.00 a.m.) and the unconsumed amount was weighed. Treatment was carried out as follows.
Total cholesterol and triglycerids plasma levels were measured at the end of the 28 day treatment and after 16 hour fasting. […] After centrifugation for 15 min at 4° C. at 3000 rpm, plasma was recovered, frozen and stored at −20° C. until measurements.
Total cholesterol and triglycerids plasma concentrations (reported in Table 2) were determined according to conventional enzymatic assays.

LDL receptor = settings: hepatic cell line; Lovati et al. 1992, 1996; Manzoni et al. 1998; cited from earlier work

Row | Molecule | Total cholesterol ([1]; dose 200 mg/kg) [mg/dL] | Total triglycerids ([1]; dose 200 mg/kg) [mg/dL] | effect on cholesterol and total triglycerids plasma levels (in words) ([1]; administration to rats, table 2) | Total cholesterol ([1]; dose 10 mg/kg) [mg/dL] | Total triglycerids ([1]; dose 10 mg/kg) [mg/dL] | LDL receptor activity (in words) (LDL receptor)
1 | CCOC(=O)C(C)(C)Oc1ccc(Cl)cc1 [clofibrate, reference compound] | 191.2 ± 8.0 | 139.1 ± 5.8 | – | – | – | –
2 | B1 | – | – | remarkably decreasing | 182.2 ± 12.1 | 150.1 ± 9.8 | capable of activating LDL receptor
